Source: article PMC6834283, “Duplicate divergence of two bacterial small heat shock proteins reduces the demand for Hsp70 in refolding of substrates” (PLoS Genetics, 2019)

Tests used:
[1] = molecular target: T1, firefly luciferase, thermally denatured (firefly, UniProt P08659 1-550 = luciferase); experiment: co-sedimentation; sHsp-substrate assemblies isolated on a glycerol gradient, incubated 45 min at room temperature with buffer or with limiting or saturating DnaK/DnaJ/GrpE, then a second 10-60% glycerol gradient; pooled top, middle and bottom fractions by Western blot with IbpA antibodies; conditions: both partners purified
T1 construct: firefly luciferase (Promega), used as the aggregating substrate; Denatured at 44°C for 10 min in the presence of the sHsps; The partner is the unfolded, aggregating protein, not the native enzyme; source: bought: Promega

[2] = molecular target: T2, C-His-tagged luciferase, aggregated on the BLI sensor (firefly, UniProt P08659 1-550 = luciferase); experiment: BLI; aggregated C-His-tagged luciferase immobilised on Ni-NTA sensors (BLItz); 5 μM sHsps (1.66 μM IbpAEc with 3.34 μM IbpBEc for IbpABEc) heat-activated at 44°C for 5 min; room temperature, buffer D (50 mM Tris-HCl pH 7.5, 150 mM KCl, 20 mM Mg acetate, 2 mM DTT); 10 min binding, 1 h dissociation in buffer; conditions: both partners purified
T2 construct: firefly luciferase with a C-terminal His tag, used only in the BLI experiments; An anchoring layer was immobilised in 6 M urea on Ni-NTA sensors; A top aggregate layer was then formed at 44°C for 10 min; also called aggregated luciferase; immobilized luciferase aggregates; source: purified (Ni-NTA agarose); not shown: His tag, C-terminal, kept
T2 sequence (P08659 whole entry): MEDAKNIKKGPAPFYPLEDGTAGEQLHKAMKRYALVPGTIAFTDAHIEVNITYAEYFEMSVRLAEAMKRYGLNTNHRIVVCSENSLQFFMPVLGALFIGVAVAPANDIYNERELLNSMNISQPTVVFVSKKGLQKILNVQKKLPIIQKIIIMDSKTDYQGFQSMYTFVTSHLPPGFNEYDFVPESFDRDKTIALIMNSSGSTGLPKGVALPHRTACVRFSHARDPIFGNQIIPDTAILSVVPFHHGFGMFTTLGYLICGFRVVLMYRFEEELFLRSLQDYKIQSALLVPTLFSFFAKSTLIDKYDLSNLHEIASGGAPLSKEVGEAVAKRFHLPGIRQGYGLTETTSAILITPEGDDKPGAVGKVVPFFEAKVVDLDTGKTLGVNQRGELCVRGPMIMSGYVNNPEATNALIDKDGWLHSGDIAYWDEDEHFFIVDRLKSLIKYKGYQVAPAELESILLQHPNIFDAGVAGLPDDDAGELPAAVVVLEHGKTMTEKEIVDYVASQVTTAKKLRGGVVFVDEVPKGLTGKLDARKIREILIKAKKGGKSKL

T1 sequence (P08659 whole entry): as above

B1: IbpA from Escherichia coli (natural protein, E. coli, UniProt P0C054 1-137, looked up)
chain: MRNFDLSPLYRSAIGFDRLFNHLENNQSQSNGGYPPYNVELVDENHYRIAIAVAGFAESELEITAQDNLLVVKGAHADEQKERTYLYQGIAERNFERKFQLAENIHVRGANLVNGLLYIDLERVIPEAKKPRRIEIN
notes: small heat shock protein IbpA, E. coli; Forms large undefined oligomers; also called IbpAEc; source: purified as described previously [23]
binding result [1]: binds | binding result [2]: binds

B2: IbpABEc (IbpAEc and IbpBEc used together, two-sHsp system of E. coli) (complex)
chain 1: B1 chain
chain 2: MRNFDLSPLMRQWIGFDKLANALQNAGESQSFPPYNIEKSDDNHYRITLALAGFRQEDLEIQLEGTRLSVKGTPEQPKEEKKWLHQGLMNQPFSLSFTLAENMEVSGATFVNGLLHIDLIRNEPEPIAAQRIAISERPALNS
notes: small heat shock protein IbpA, E. coli; as m1; small heat shock protein IbpB, E. coli; as m2; source: the two purified proteins (as described previously [23]) mixed at about 1:2
binding result [1]: binds | binding result [2]: binds
